According to US20080241867A1:

Biological target: hybrid GFP construct containing the protease cleavage sequence SVPSGCG (SEQ ID NO:21) followed by histidine residues (Aequorea victoria (Water jellyfish) (Mesonema victoria)) [GFP: P42212]
Experiment: cell-based or functional assay

A Micrograms of GFP Released by Protease (overnight, IMAC beads) of 137 µg was found for Pancreatin in this work.
